Molecular target: APOBEC3B with C-terminal 3xHA tag (A3Bi-3xHA) (human) (UniProt Q9UH17)
Experiment: cell-based or functional assay

Q: For “hnRNPUL1-Cas9n-UGI-NLS (heterogeneous nuclear ribonucleoprotein U-like fused to the N-terminal end of Cas9 nickase, in the BE3 vector in place of APOBEC1) (from UniProt Q9BUJ2 1-856; Q99ZW2 2-1368; P14739 2-84)”, which eGFP-positive 293T cells 72 hours post-transfection (chromosomal eGFP Leu202 reporter) is on record?
A: 1.5%

Q: What about the episomal eGFP Leu202 reporter editing frequency against the BFP-Cas9n/gRNA background of the same substance?
A: > 2 fold

Reference: patent US20210108188A1
